Reference: US20190099499A1 (Pfizer, published 2019)

What was measured:
[1] = molecular target: T1, human FcRn, biotinylated through an engineered Avi-tag (human, UniProt P55899 24-297; P61769 21-119); assay: SPR (BIAcore), steady-state, pH 6.0; biotinylated human FcRn on streptavidin chip, antibody injected
T1 construct: not shown: engineered Avi-tag

[2] = molecular target: T2, human Fc-gamma receptor I (CD64) (human, UniProt P12314 16-288, limits assumed); assay: SPR (BIAcore), antibody captured on immobilized CD33 ECD, receptor injected; kinetic fit
T2 construct: Soluble receptor injected over captured antibody; also called FcγRI (CD64)
Experimental: (§1) Various concentrations of the Fcγ receptors FcγIIa (CD32a), FcγIIb(CD32b), FcγIIIa (CD16a) and FcγRI (CD64) were injected over the surface and binding was determined.

[3] = molecular target: T3, human Fc-gamma receptor IIb (CD32b) (human, UniProt P31994 43-217); assay: SPR (BIAcore), antibody captured on immobilized CD33 ECD, receptor injected; steady state fit
T3 construct: Soluble receptor injected over captured antibody; also called FcγIIb(CD32b)
T3 sequence (looked up): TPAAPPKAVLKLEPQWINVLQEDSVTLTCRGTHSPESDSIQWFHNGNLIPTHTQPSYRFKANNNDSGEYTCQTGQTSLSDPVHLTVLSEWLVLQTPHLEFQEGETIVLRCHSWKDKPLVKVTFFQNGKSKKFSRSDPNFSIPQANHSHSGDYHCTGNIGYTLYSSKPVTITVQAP
Experimental: as §1

[4] = molecular target: T4, human Fc-gamma receptor IIa (CD32a) (human, UniProt P12318 34-217); assay: as above
T4 construct: Soluble receptor injected over captured antibody; also called FcγIIa (CD32a)
T4 sequence (looked up): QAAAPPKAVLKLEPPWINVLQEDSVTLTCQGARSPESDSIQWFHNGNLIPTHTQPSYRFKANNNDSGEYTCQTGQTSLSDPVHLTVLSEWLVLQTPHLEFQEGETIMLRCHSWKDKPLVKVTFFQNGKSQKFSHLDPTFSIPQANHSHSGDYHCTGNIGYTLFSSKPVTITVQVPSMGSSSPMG
Experimental: as §1

[5] = molecular target: T5, human Fc-gamma receptor IIIa (CD16a) (human, UniProt P08637 17-208); assay: as above
T5 construct: Soluble receptor injected over captured antibody; also called FcγIIIa (CD16); FcγIIIa (CD16a)
Experimental: as §1

[6] = molecular target: T3, human Fc-gamma receptor IIb (CD32b); assay: SPR (BIAcore), ADC captured on immobilized CD33 ECD, receptor injected; steady state fit
Experimental: as §1

[7] = molecular target: T4, human Fc-gamma receptor IIa (CD32a); assay: as above
Experimental: as §1

[8] = molecular target: T5, human Fc-gamma receptor IIIa (CD16a); assay: as above
Experimental: as §1

[9] = molecular target: T2, human Fc-gamma receptor I (CD64); assay: SPR (BIAcore), ADC captured on immobilized CD33 ECD, receptor injected; kinetic fit
Experimental: as §1

[10] = molecular target: T1, human FcRn, biotinylated through an …; assay: SPR (BIAcore), steady-state, pH 6.0; biotinylated human FcRn on streptavidin chip, ADC injected
Text: BIAcore® technology utilizes changes in the refractive index at the surface layer of a sensor upon binding of the anti-CD33 derived monoclonal antibodies or their respective ADCs to human FcRn protein immobilized on the layer. Binding was detected by surface plasmon resonance (SPR) of laser light refracting from the surface. Human FcRn was specifically biotinylated through an engineered Avi-tag using the BirA reagent (Catalog #: BIRA500, Avidity, LLC, Aurora, Colo.) and immobilized onto a streptavidin (SA) sensor chip to enable uniform orientation of the FcRn protein on the sensor.

T1 sequence (P55899 24-297 limits assumed, change not shown, chain 1 of 2): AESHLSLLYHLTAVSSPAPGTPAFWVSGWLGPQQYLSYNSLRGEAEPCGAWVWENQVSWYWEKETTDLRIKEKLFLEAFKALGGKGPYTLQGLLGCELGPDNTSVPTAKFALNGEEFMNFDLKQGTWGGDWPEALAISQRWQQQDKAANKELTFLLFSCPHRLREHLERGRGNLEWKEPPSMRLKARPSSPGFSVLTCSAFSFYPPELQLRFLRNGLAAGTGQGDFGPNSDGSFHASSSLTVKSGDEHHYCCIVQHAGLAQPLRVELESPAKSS
T1 sequence (P61769 21-119 limits assumed, change not shown, chain 2 of 2): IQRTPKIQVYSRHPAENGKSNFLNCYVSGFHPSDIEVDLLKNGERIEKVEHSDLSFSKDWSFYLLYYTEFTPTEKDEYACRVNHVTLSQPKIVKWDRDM
T5 sequence (P08637 17-208 limits assumed): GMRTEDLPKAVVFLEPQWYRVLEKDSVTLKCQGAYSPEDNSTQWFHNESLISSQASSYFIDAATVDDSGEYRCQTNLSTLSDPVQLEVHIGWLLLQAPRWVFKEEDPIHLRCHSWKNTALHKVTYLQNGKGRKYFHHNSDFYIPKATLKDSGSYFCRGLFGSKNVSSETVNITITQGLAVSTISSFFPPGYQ
T2 sequence (P12314 16-288 limits assumed): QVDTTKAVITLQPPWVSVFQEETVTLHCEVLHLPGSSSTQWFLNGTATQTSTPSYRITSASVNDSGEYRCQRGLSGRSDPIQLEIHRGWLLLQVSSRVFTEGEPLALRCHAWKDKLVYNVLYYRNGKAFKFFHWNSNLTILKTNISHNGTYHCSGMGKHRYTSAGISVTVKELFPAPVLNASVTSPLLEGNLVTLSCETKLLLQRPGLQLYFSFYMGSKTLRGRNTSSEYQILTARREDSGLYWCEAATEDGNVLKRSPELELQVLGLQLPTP

Binder | Kd [1] [nM] | Kd [2] [nM] | Kd [3] [nM] | Kd [4] [nM] | Kd [5] [nM] | Kd [6] [nM] | Kd [7] [nM] | Kd [8] [nM] | Kd [9] [nM] | Kd [10] [nM]
CD33-(K334C/K392C) antibody (unconjugated) (antibody, human IgG1, Human IgG1 with engineered Cys at heavy chain positions 334 and 392 (Eu index of Kabat); also called CD33-(K334C/K392C)-human IgG1 antibody) heavy: not shown light: DIQLTQSPSSLSASVGDRVTITCRASSSVGYMHWYQQKPGKAPKLLIYDTSQLASGVPSRFSGSGSGTDFTLTISSLQPEDFATYYCQLWSSNPLTFGGGTKVEIKRTVAAPSVFIFPPSDEQLKSGTASVVCLLNNFYPREAKVQWKVDNALQSGNSQESVTEQDSKDSTYSLSSTLTLSKADYEKHKVYACEVTHQGLSSPVTKSFNRGEC | 964 | 0.02 | 3460 | 900 | 210 | – | – | – | – | –
CD33-(K334C/K392C)-CPI (CD33-(K334C/K392C)-MalPeg6-vc-PABC-DMAE-CPI ADC) (antibody, human IgG1, linker-payload MalPeg6-vc-PABC-DMAE-CPI (LP7) on engineered Cys 334 and Cys 392 (Eu index of Kabat); DAR 4.0, Antibody drug conjugate, human IgG1) heavy: not shown light: DIQLTQSPSSLSASVGDRVTITCRASSSVGYMHWYQQKPGKAPKLLIYDTSQLASGVPSRFSGSGSGTDFTLTISSLQPEDFATYYCQLWSSNPLTFGGGTKVEIKRTVAAPSVFIFPPSDEQLKSGTASVVCLLNNFYPREAKVQWKVDNALQSGNSQESVTEQDSKDSTYSLSSTLTLSKADYEKHKVYACEVTHQGLSSPVTKSFNRGEC | – | – | – | – | – | 20100 | 12900 | 5650 | 0.17 | 1220
